Test results published in the DeepSol protein solubility set.

assay: soluble on expression in E. coli; label from the status in PepcDB or PDB records

Sequence | soluble on expression in E. coli
DGTVVNYVGFQRDITERKEHERRLKALSESVQDLLQADTREEVAEIGVETARTVLGLEANTIHLYNEAERTLEPVAASDGIYDLLEDLPTFTPGDSIAWRVYESGDALAVDDVHADPDIYNPDTPIKSELYLPLGRHGILLAGSGTNAAFDQR | not soluble
DGVGGDPAVALPHRRFEYKYSFKGPHLVQSDGTVPFWAHAGNAIPSSDQIRVAPSLKSQRGSVWTKTKAAFENWEVEVTFRVTGRGRIGADGLAIWYAENQGLEGPVFGSADLWNGVGIFFDSFDNDGKKNNPAIVIIGNNGQIHYDHQNDGASQALASCQRDFRNKPYPVRAKITYYQNTLTVMINNGFTPDKNDYEFCAKVENMIIPAQGHFGISAATGGLADDHDVLSFLTFQLTEPGKEPPTPDKEISEKE | soluble
DGVRIFNSLAATVYADSTAAHADMQGRRLKAVSDGLDHNGTGLRVIAQTQQDGGTWEQGGVEGKMRGSTQTVGIAAKTGENTTAAATLGMGRSTWSENSANAKTDSISLFAGIRHDAGDIGYLKGLFSYGRYKNSISRSTGADEHAEGSVNGTLMQLGALGGVNVPFAATGDLTVEGGLRYDLLKQDAFAEKGSALGWSGNSLTEGTLVGLAGLKLSQPLSDKAVLFATAGVERDLNGRDYTVTGGFTGATAATGKTGARNMPHTRLVAGLGADVEFGNGWNGLARYSYAGSKQYGNHSGRVGVGYRF | soluble
DHAAPLIFLIAGTGAPYNSTINEFLKKLYYGAGYHVVQLSSPTSYDFMSSASRFATPGVSTEDAEDLYRVMQAIRAQQAQLPVTDYYLTGYSLGALNAAFVSKLDETRRSFNFKKVLLLNPPVNLYTSISNLDKLVQTNVKGINNTTTFYELVLAKLTRYFRQKGYIDLNDALLFDFQQSKQHLTNEQMAMLIGTSFRFSSADIAFTSDLINRRGLIIPPKFPISEGTSLTPFLKRALQCDFDCYLTEQVIPMWRARTDGGSLLQLVDQVSLYALKDYLHSNTKIAVMHNADDVILGAGDLGFLRKTFGDRLTVYPYGGHCGNLNYRVNTDAMLEFFRG | not soluble
DIQMTQSPSTLSASIGDRVTITCRASEGIYHWLAWYQQKPGKAPKLLIYKASSLASGAPSRFSGSGSGTDFTLTISSLQPDDFATYYCQQYSNYPLTFGGGTKLEIKRTVAAPSVFIFPPSDEQLKSGTASVVCLLNNFYPREAKVQWKVDNALQSGNSQESVTEQDSKDSTYSLSSTLTLSKADYEKHKVYACEVTHQGLSSPVTKS | soluble
DKKLAIVIHDNPDPDAISSGLALKEIAKSLGVEASILYHGRIGHQENKAFVNLLGIDLGKMEEHDLKDFDEIALIDCSIPGVNNMVPPNSYVGIVIDHHPPGETEIKAEYIDIRPNFGATATIMTKYLQQLNINISKTLATALLYGIRTDTQDFKRKTDPADLSAASYLYPLSNHGILDQLEQPSMAI | not soluble
DNVKYVSSVQRDKELLHAKYGKDIDKAEDVAKEYPSLESIVAKHPDIFVAGWNYGFSEEKNLTPDALKDQGIDSYILSESCRQEGSEKRGLYDPWEAVKMDISNIGKITSHADTADSVVKDIDSRLETLKKAPQADKAPTAFVFDSGTDTVFTSGKFGAPQAIIEAAGGRNGAENVEDTWTTVSWENLAASKPDVFVFVDYPGQEFEEKIAALRSNPATKNLPAVKENRFINLPYAMWTSGPLNIDAAEQMRKGFEKFGLVPSSEIKPSLELPASVPGQNYYK | not soluble
DSLVFVQTDKSIYKPGQTVKFRVVSMDENFHPLNELIPLVYIQDPKGNRIAQWQSFQLEGGLKQFSFPLSSEPFQGSYKVVVQKKSGGRTEHPFTVEEFVLP | soluble
DSTFTNISLADDIDHSSRILYPRPKSLLPKMMNADMDVDAENQVELEEKTRLINQVLELQHTLEDLSARVDAVKEENLKLKSENQVLGQYIENLMSASSVFQTTDTKSKRK | not soluble
DTFIGWEPEVTHKKYFAMLDTISQVQGVPEPIIEAVAPLFFANNADQVHPELVASFKQSLESLTGERAVEVARIGRMVFGRRDVIEDAEKFALPTLIAVGREDKPRPVFESYLMHDCITGSELVEIPEAGHISSLEQPEFVNQMLLSFLNKVHA | not soluble
DTTQNLMIEGDNLEVLKLLQKSYAGKIKLIYIDPPYNTGKDFVYPDDFKDNIRNYLELTGQVEGGRKISSNTEASGRFHTDWLNMMYPRLKIARQLLSPTGVIAVHIDEHELEALVIVLRDLFGEENELGVTIWDKRNPKGDSRGIAYQHESLVLFARDAEELFARSPVRRAKRNAERMLNAASRFVTECGSIAEARAAYRSWVKSQSTLSGGESMYDKLSETGRVYRLVSMAWPNKKRAPADYFVPLKHPITGKDCPIPERGWRNPPATMKKLLEDGLIEFGPDEIMQPQRIYFLDENMYENVPSIVPFGGSDDELLKELSVPFEQPKPVDFSVQVISWCSSKDEIVMDFFAGSGTTGHAVMAQNAADGGNRRYILVQLPEPLDPENKDQKVAAEFCDKLGKPRTIAELTKERLRRAAKKIKEENPLFAGDLGFRVFKLDSSNIRA | not soluble
DVFVYGSFQEPSVVNLILECSPVMVPAQLHGYHVYRLKGRLHACISPSENGLINGKILTGLTDSQLENLDMIEGSEYVRKTVEVVLTDTSEKKQVETYVWANKDDPNLYGEWDFEEWRRLHMDKFIEASTKFIEWKKNPDG | not soluble
DVQLQQSGPGLVAPSQSLSITCTVSGFSLTDYGVNWVRQSPGKGLEWLGVIWGDGITDYNSALKSRLSVTKDNSKSQVFLKMNSLQSGDSARYYCVTGLFDYWGQGTTLTVSSASGADHHHHHH | soluble
EAVIATDEMNVRSGPGLSYGITAEVKKGERYPILKEDGDWVQIQLGSGEKGWVVSWLITKEDQASTSSSGSSDTVTSTDPDLRMRSGPGTSYEVIGKFPQGSQASVIDKDSGWIKISYHSATGWVSSEYVTSGGSSSASDESDQTEDSGASTTGTVGVSSLNVRASASHDAAIITKLDRGTKLTVLNEKNGWAHIEVNGLKGWVASHYLLTSSVPADDSANAGSSSSAKKAYIMYGGTNLRSDASTSASIVERAAKGDSYTITGSKGSWYEIKLDNGQTAYVANWVVQTSKSAEEAGEPPVSDSPSGNGSLNNKTIIVDPGHGGKDSGTIGYSGKFEKNLTIKTAKLLASKLRSAGADVYVTRQDDTFVSLQSRVSTSHYRNADAFISIHYDSYADTSTRGSTAYYYSPAKDQELASDVHSEVVKRSSIPDRGVLFGDYYVLRENRQPAMLYELGYVSHPQEEAIVHSNSYQEKVTDGIESGLEKYF | not soluble
EDAALREEAKGLFEVIPMQAPQLADNNTVTRDKIDLGAMLFFDPRMSKSGVFSCQSCHNVGLGGVDGLETSIGHGWQKGPRNAPTALNAVFNVAQFWDGRAPDLAAQAKGPVQAGVEMNNTPENLVATVQSMPGYVEAFAKAFPGQKDPISFDNFALAVEAFEATLITPNSKFDQWLMGADGAMSADEKAGLKLFIDTGCAACHNGINIGGNGYYPFGVVEKPGAEVLPAGDKGRFAVTATADDEYVFRAGPLRNIALTAPYFHSGKVWDLREAVSVMANSQLGATLDDTQVDQITAFLGTLTGEQPEVVHPILPVRSAQTPRPEHMN | soluble
EDKIMSYNAFFWMWVHDMLIDSIKWRDEHGRCINKDKGKTCIKGCNKKCICFQKWVEQKKTEWGKIKDHFRKQKDIPKDWTHDDFLQTLLMKDLLLEIIQDTYGDANEIKRIEALLEQAGVGGIDFAALAGLYTKGFVAEKDTTIDKLLQHEQKEADKCLKTHTDDTCPPQEDRSVARS | soluble
EEALIKIKQQEIVKNLPANAALVQLKYAGKTTDEPILNNLYKKYQVTANILYGNIEILEKTPVGEMIVILEGAATNIDQALNDLTHSDLTVTVLKRGV | not soluble
EGDPENGEKLQITIRRGKDGFGFTICCDSPVRVQAVDSGGPAERAGLQQLDTVLQLNERPVEHWKCVELAHEIRSCPSEIILLVWRV | soluble
EGQEKFKDLTYIAASVCNTEHAFITLLNKDNLVFLSSFKPPLAEITRDLSFCEITIQSDTVHEVQDARVHERFSNNPYVIGEPYLRYYCGAPLIDENGYKLGALCVLDTNPRTLTENQKKSLVLLAKQV | not soluble
EGRATHLQGLVVDITERKEAQKMLEIQRELGAKLNTTWNLHAILNMVLDACLQINGIDAGGVYIRDELLDQINLVQSRGISPEFKEKVSRFKADSNEAKQVWAEKPIYSMDFYSDKMAEAARKEGIKAVAVIPLKYSNEIIGSLNFASH | not soluble
